Laboratory results reported in patent US20070059727A1.

Biological target: microtubules assembled from fluorescein-modified bovine brain tubulin (α-/β-tubulin heterodimers) (bovine)
Assay: cell-based or functional assay

average MT length after 5 min of polymerization (MTs on GST-γ-tubulin-functionalized gold pads against MTs grown in solution): 1.68 micron
average MT length after 10 min of polymerization (MTs on GST-γ-tubulin-functionalized gold pads against MTs grown in solution): 3.47 micron
Substance: Glutathione S-Transferase (GST)-tagged γ-Tubulin fusion protein (from UniProt P23258 1-451)
